Target: T1, lamin A/C (endogenous, mEos3.2-lamin A/C WT mouse dermal fibroblasts) (mouse (endogenous in mouse dermal …, UniProt P48678 1-647))
T1 construct: lamins A and C, both products of the mouse Lmna gene, precipitated together by lamin A/C antibodies; WT clone #21 expresses mEos3.2-tagged lamin A/C (mEos3.2 in frame before the first codon, N-terminal) from 1 allele and untagged lamin A/C from 3 alleles; the precipitated pool holds tagged and untagged lamins A and C; also called lamins A and C; A-type lamins; source: endogenous, mEos3.2-Lmna WT …
T1 sequence (looked up): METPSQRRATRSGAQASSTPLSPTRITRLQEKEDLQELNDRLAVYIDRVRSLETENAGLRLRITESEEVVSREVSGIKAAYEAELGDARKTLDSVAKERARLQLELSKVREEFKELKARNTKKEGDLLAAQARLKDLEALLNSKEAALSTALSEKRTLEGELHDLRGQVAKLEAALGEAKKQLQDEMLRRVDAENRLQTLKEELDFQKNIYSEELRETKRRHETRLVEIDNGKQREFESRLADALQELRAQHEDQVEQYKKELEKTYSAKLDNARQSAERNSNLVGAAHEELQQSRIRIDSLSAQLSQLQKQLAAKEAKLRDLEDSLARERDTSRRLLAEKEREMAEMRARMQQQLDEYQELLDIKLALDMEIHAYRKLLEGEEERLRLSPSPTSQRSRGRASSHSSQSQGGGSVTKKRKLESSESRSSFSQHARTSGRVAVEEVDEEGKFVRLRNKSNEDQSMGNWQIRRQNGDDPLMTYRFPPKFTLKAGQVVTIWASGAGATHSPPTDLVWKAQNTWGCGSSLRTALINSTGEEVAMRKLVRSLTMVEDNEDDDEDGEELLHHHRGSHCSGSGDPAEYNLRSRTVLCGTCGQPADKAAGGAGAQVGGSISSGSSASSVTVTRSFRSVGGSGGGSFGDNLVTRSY
Test: not stated; our unpublished data; ratio of mEos3.2-lamin A and LAP2α in the complex

B1: LAP2α (endogenous, mouse dermal fibroblasts) (natural protein, UniProt Q61033 1-693, looked up)
chain: MPEFLEDPSVLTKDKLKSELVANNVTLPAGEQRKDVYVQLYLQHLTARNRPPLAAGANSKGPPDFSSDEEREPTPVLGSGASVGRGRGAVGRKATKKTDKPRLEDKDDLDVTELSNEELLDQLVRYGVNPGPIVGTTRKLYEKKLLKLREQGTESRSSTPLPTVSSSAENTRQNGSNDSDRYSDNDEGKKKEHKKVKSARDCVPFSELASTPSGAFFQGISFPEISTRPPLGRTELQAAKKVQTTKRDPPRETCTDTALPGKGQTHKLAPGRSLFIPSESSYDRCVEKSSSPSSQREFAARLVSAAASPSLIRETTTTYSKDIVENICRGGKSRAQPLRAEEPGVSDQSVFSSEREVLQESERSQVISPPLAQAIRDYVNSLLVQGGVGSLPGTSDSVPTLDVENICKRLSQSSYQDSESLSPPRKVPRLSEKPARGGDSGSCVAFQNTPGSEHRSSFAKSVVSHSLTTLGVEVSKPPPQHDKIEASEPSFPLHESILKVVEEEWQQIDRQLPSVACRYPVSSIEAARILSVPKVDDEILGFISEATPRAATQASSTESCDKHLDLALCRSYEAAASALQIAAHTAFVAKSLQADISQAAQIINSDPSDAQQALRILNRTYDAASYLCDAAFDEVRMSACAMGSSTMGRRYLWLKDCKISPASKNKLTVAPFKGGTLFGGEVHKVIKKRGNKQ
notes: lamin-associated polypeptide 2 alpha (LAP2α), mouse, endogenous, detected with antibody 1H11; also called lamin-associated polypeptide 2 alpha; source: endogenous, mEos3.2-Lmna WT mouse dermal fibroblasts, soluble cell extract
Question: Which “stoichiometry N” value does the source give for B1 here?
Answer: 1
